Assay results reported in patent publication US7419813B2, “Fructosyl peptide oxidase” (Kikkoman Corporation, priority 2001, dated 2008).

Experiments:
Type in all cases: biochemical
[1] = Enzyme activity assay (hydrogen peroxide, POD-4-AA colour at 510 nm), fructosyl valyl histidine substrate; conditions: for Activity per medium / Substrate specificity (% relative activity) FVH: crude enzyme sample; for action on fructosyl valyl histidine and ε-fructosyl lysine (in words): crude enzyme samples of Tables 1 and 2
Source text: Enzyme activities of the oxidase of the invention and the oxidase of the invention that have less action on ε-fructosyl lysine (hereinafter, the term “the oxidases of the invention” may comprise both the oxidase of the invention and the oxidase of the invention that have less action on ε-fructosyl lysine) may principally be determined by determining the amount of α-ketoaldehyde, peptide, hydrogen peroxide or the like which are produced through enzyme reaction or by determining the amount of oxygen consumed by the enzyme reaction. Hereinafter, a method for determining the amount of hydrogen peroxide will be described as one example. Unless otherwise noted, fructosyl valyl histidine is used as a substrate for determining the activities of the oxidases of the invention. Titer of the enzyme is defined such that an amount of enzyme for producing 1 μmol hydrogen peroxide per minute is 1U as determined using a fructosyl valyl histidine substrate. 1.0 kU of peroxidase (Toyobo Co., Ltd, TYPE III) and 100 mg of 4-aminoantipyrine (Tokyo Kasei Kogyo Co., Ltd.) are dissolved in 0.1 M potassium phosphate buffer (pH 8.0) to a constant volume of 1L. 25 ml of a commercially available 2% solution (available from Nacalai Tesque, Inc.) is dissolved in ion exchange water to a constant volume of 100 ml. 624 mg of fructosyl valyl histidine is dissolved in ion exchange water to a constant volume of 10 ml. Alternatively, fructosyl glycine or ε-fructosyl lysine of 357 mg or 462 mg, respectively, may be dissolved in ion exchange water to a constant volume of 10 ml to be used as a substrate. Fructosyl valine histidine was prepared as described in Japanese Patent Application Laid-Open (kohyo) No. 2001-95598. Fructosyl glycine and ε-fructosyl lysine were prepared according to a method of Horiuchi et al. (Agric. Biol. Chem., 53, 103-110, 1989; Agric. Biol. Chem., 55, 333-338, 1991). 2.7 ml of Reagent 1, 100 μl of Reagent 2 and 100 μl of enzyme solution are mixed and pre-heated at 30° C. for 5 minutes. Then, 100 μl of Reagent 3 is added and thoroughly mixed to determine absorbance at 510 nm using a spectrophotometer (U-[…], Hitachi, Ltd.). Measurement values indicate changes in the absorbance per minute at 510 nm after 1 to 3 minutes. A control solution was prepared in the same manner as described above except 100 μl ion exchange water was added instead of 100 μl Reagent 3. A standard solution of hydrogen peroxide and ion exchange water were used instead of Reagent 3 and the enzyme solution, respectively, to prepare a graph showing relationship with respect to the level of color. Referring to this graph, micromole of hydrogen peroxide produced per minute at 30° C. is calculated and used as the unit for expressing the activity of the enzyme solution. The presence of action on ε-fructosyl lysine can be determined in the same manner by using Reagent 3 (substrate solution) containing ε-fructosyl lysine substrate instead of fructosyl valyl histidine substrate.

[2] = Optimum temperature range of the enzyme reaction; conditions: purified oxidase
Experimental: For example, a reaction solution having the same composition as that of a reaction solution used for the activity assay described later is used to determine activities of the enzyme at various temperatures, thereby determining a suitable temperature range for action. The oxidases of the invention may, for example, have a suitable temperature range of 20-50° C., preferably 25-45° C. For example, a reaction solution having the same composition as that of a reaction solution for the activity assay described later is used to determine activities of the enzyme at various temperatures, thereby determining a suitable temperature range. The oxidases of the invention that have less action on ε-fructosyl lysine may, for example, have a suitable temperature range of 20-50° C., preferably 25-40° C. The activity of the inventive oxidase was assayed at different temperatures using reactions which consisted of the same compositions as those used in the above-described activity assay.

[3] = Optimum pH of the enzyme reaction; conditions: purified oxidase, 30° C.; for optimum pH (range): relative activities of 70% or higher
Experimental: For example, 200 mM acetic acid buffer (pH 3.0-6.0), 200 mM MES-NaOH (pH 6.0-7.0), 200 mM Tris buffer (pH 6.8-9.0), 200 mM potassium phosphate buffer (pH 6.5-8.0) and 200 mM glycine buffer (pH 8.0-12.0) are used as buffers to perform enzyme reactions at the indicated pH at 30° C., thereby determining optimal pH. For example, the oxidases of the invention may have an optimal pH at 5.0-9.0, preferably pH 6.0-8.0. For example, 200 mM acetic acid buffer (pH 3.0-6.0), 200 mM MES-NaOH (pH 6.0-7.0), 200 mM Tris buffer (pH 6.8-9.0), 200 mM potassium phosphate buffer (pH 6.5-8.0) and 200 mM glycine buffer (pH 8.0-12.0) are used as buffers to perform enzyme reactions at the indicated pH at 30° C., thereby determining optimal pH. For example, the oxidases of the invention that have less action on ε-fructosyl lysine may have an optical pH at 5.0-9.0, preferably at 6.0-8.0. Enzyme reaction was monitored in 200 mM acetic acid buffer (pH 3.0-6.0), 200 mM MES-NaOH (pH 6.0-7.0), 200 mM Tris buffer (pH 6.8-9.0), 200 mM potassium phosphate buffer (pH 6.5-8.0) or 200 mM glycine buffer (pH 8.0-12.0) at the indicated pH values at 30° C. […] Enzyme reaction was monitored in 200 mM acetic acid buffer (pH 4.0-6.0), 200 mM MES-NaOH (pH 6.0-7.0), 200 mM Tris buffer (pH 7.0-8.5), 200 mM potassium phosphate buffer (pH 6.0-8.0) or 200 mM glycine buffer (pH 8.0-9.0) at the indicated pH values at 30° C.

[4] = Reaction assay in 96-well plate with fructosyl glycine (control substrate); conditions: purified enzyme; control substrate set to 100%
Experimental: Fructosyl glycine (4.5 mg) was dissolved in 1 ml of water.
Developer solution consisted of the following materials:
• (a) Enzyme purified from Achaetomiella virescens ATCC 32393 • (b) Enzyme purified from Eupenicillium terrenum ATCC 18547 • (c) Enzyme purified from Coniochaeta sp. NISL 9330 (FERM BP-7798) • (d) 20 mM phosphate buffer, pH 8.0 (2) Reaction Assay
Reaction substrate (D: a, b) (20 μl), developer solution (E) (20 μl) and the inventive oxidase (F: a-d) (10 μl) were mixed in 96-well assay plates for reaction. Each plate was monitored at 510 nm using a plate reader (Immuno Mini NJ-2300, available from Nalge Nunc International K. K.) for 70 minutes. The results are shown as % relative activity when compared to 100% activity for fructosyl glycine (Table 4). […] It was confirmed that all of the inventive oxidases were reactive with the protease-digested products of α-glycated hexapeptide.

[5] = relative to activity for ε-fructosyl lysine (100%)
[6] = strain cultured on enzyme inducible medium 1 at 30° C. for 4 days, Tables 1 and 2

B1: Eupenicillium terrenum ATCC 18547: fructosyl peptide oxidase produced by Eupenicillium terrenum ATCC 18547 with less action on ε-fructosyl lysine; amino acid sequence SEQ ID NO: 3 (protein, listed as Eupenicillium terrenum)
chain: MAHSRASTKVVVVGGGGTIGSSTALHLIRSGYTPSNITVLDVYKTPSLQSAGHDLNKIMGIRLRNGPDLQLSLESLDMWQNDELFKPFFHQVGMIDCSSSKEGIENLRRKYQTLLDAGIGLEKTNVWLESEDEILAKAPNFTREQVKGWKGLFCTDGGWLAAAKAINAIGIFLQDKGVKFGFGGAGTFQQPLFAADGKTCIGLETTDGTKYFADKVVLAAGAWSPTLVDLEDQCVSKAWVFAHIQLTPKEADAYKNVPVVYDGEYGFFFEPNEYGVIKVCDEFPGFSRFKLHQPYGAASPKMISVPRSHAKHPTDTYPDASEVTIRKAIARFLPEFKDKELFNRTMCWCTDTADANLLICEHPKWKNFILATGDSGHSFKLLPNIGKHVVELLEGSLSQEMAGAWRWRPGGDALRSRRGAPAKDLAEMPGWKHDAHL
Activity per medium ([1]; Eupenicillium strains on enzyme induction media 1 at 30° C. for 4 days, Table 3): 2.8 U/L
Substrate specificity (% relative activity) FVH ([1]; reference substrate set to 100%): 100%
Substrate specificity (% relative activity) FVH [1, 5]: 1023%
Activity per medium [1, 6]: 2.8 U/L
action on fructosyl valyl histidine and ε-fructosyl lysine (in words) [1]: acted well on fructosyl valyl histidine but less on ε-fructosyl lysine
temperature of maximum activity (100%) [2]: around 35 °C
optimum temperature range ([2]; relative activities of 50% or 60% or higher): 25-40 °C
pH of maximum activity (most preferable pH) [3]: 7.0 pH
optimum pH (range) [3]: 6.0-8.0 pH
% relative activity on fructosyl glycine [4]: 100%

B2: Coniochaeta sp. NISL 9330: fructosyl peptide oxidase produced by Coniochaeta sp. NISL 9330 (FERM BP-7798) with less action on ε-fructosyl lysine; amino acid sequence SEQ ID NO: 1 (protein, listed as Coniochaeta sp.)
chain: MTSNRADTRVIVVGGGGTIGSSTALHLVRSGYAPANITVLDTFEIPSAQSAGHDLNKIMGIRLRNKVDLQMSLEARQMWKEDELFQPFFHNTGRMDCEHTPEGIEDLKKQYQALHDAGAGLEKTHAWLDNEDEILSKMPLLQRDQIQGWKAIWSQDGGWLAAAKAINAIGQFLKERGVKFGFGGAGSFKQPLFDDEGTTCIGVETADGTKYYADKVVLAAGAWSPTLVDLEDQCCSKAWVYAHIQLTPEEAAEYKGVPVVYNGEFGFFFEPNEFGVIKVCDEFPGFSRFKEHQPYGAPSPKHISVPRSHAKHPTDTYPDASEVSIKKAIATFLPRFQDKELFNRALCWCTDTADAALLMCEHPKWKNFILATGDSGHSFKILPNVGKHVVELIEGRLPEEMAYQWRWRPGGDALKSRRAAPPKDLADMPGWKHDPKL
Substrate specificity (% relative activity) FVH [1, 5]: 165%
Activity per medium [1, 6]: 70.1 U/L
action on fructosyl valyl histidine and ε-fructosyl lysine (in words) [1]: acted well on fructosyl valyl histidine but less on ε-fructosyl lysine
temperature of maximum activity (100%) [2]: around 40 °C
pH of maximum activity (most preferable pH) [3]: 7.0 pH
optimum pH (range) [3]: 6.0-8.0 pH
% relative activity on fructosyl glycine [4]: 100%
